Assay results: the supplement of paper PMC9170038

Key:
[1] = tested on: MS2 coat protein; assay: apparent KD of MS2 coat protein; higher = weaker reporter binding; details: Eterna round: R101
Experimental: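 RNA-MaP: designed FMN/MS2 RNA switches (84 nt design region) are transcribed on-chip within common flanks and titrated with SNAP-549-labelled MS2 coat protein (about 1-3000 nM) in 100 mM Tris pH 7.5, 80 mM KCl, 4 mM MgCl2, without or with 200 uM FMN. Median apparent KD per design; activation ratio = KD,OFF / KD,ON.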

[2] = tested on: MS2 coat protein; assay: apparent KD of MS2 coat protein, switch ON state; designed switch direction (-1 OFF switch, 1 ON switch): 1; higher = weaker reporter binding; details: FMN input: 0 or 200 uM; Eterna round: R93 (includes R88 designs)
How it was run: (§1)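 Designed RNA switches were made by on-chip transcription from Illumina sequencing clusters and then titrated with SNAP-549-labelled MS2 coat protein. Twofold steps ran from 0.7 or 1.5 nM to 3 µM, each lasting 0.8–1.5 h early and 10–20 min late, in 100 mM Tris-HCl pH 7.5, 80 mM KCl, 4 mM MgCl2, without or with constant ligand. Apparent KD is the per-design median of normalised cluster binding-curve fits.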

[3] = tested on: MS2 coat protein; assay: apparent KD of MS2 coat protein, switch OFF state (with FMN for OFF switches, without FMN for ON switches); designed switch direction (-1 OFF switch, 1 ON switch): 1; higher = weaker reporter binding; details: FMN input: 0 or 200 uM; Eterna round: R93 (includes R88 designs)
How it was run: as §1

AAAUAACUUGAAGGAUAUCAGGGUGCACCUCAGUAAAACUGAGGUGCACCCUGAGAAGGUCGAGGAUCACCCGACCUAAAUAAA [#SharedSequence SLExNG1: 6-2] (puzzle (switch architecture): Small Loop Exclusion NG 1)
apparent KD of MS2 coat protein ([1]; input ligand: FMN 200 uM): 7.27 nM | apparent KD of MS2 coat protein ([1]; input ligand: none): 5.76 nM

AAAUAACUUGAAGGAUAUCAGGGUGCACCUCAGUAAAACUGAGGUGCACCCUGAGAAGGUCGAGGAUCACCCGACCUAGUGAAA [#SharedSequence SLExNG1: 7-2] (puzzle (switch architecture): Small Loop Exclusion NG 1)
apparent KD of MS2 coat protein ([1]; input ligand: FMN 200 uM): 7.19 nM | apparent KD of MS2 coat protein ([1]; input ligand: none): 6.8 nM

AAAUAAUCCUUAGGAUAUGACUCCGAAACGGAGUCAGAAGGGAGGAUCACCCUCUUCAGCUCAGCGUCGAAAGACGCUGAGCAA [#SharedSequence ExNG1 - 22] (puzzle (switch architecture): Exclusion NG 1)
apparent KD of MS2 coat protein ([1]; input ligand: FMN 200 uM): 200 nM | apparent KD of MS2 coat protein ([1]; input ligand: none): 72.8 nM

ACACGUCGUGAGAAGGAGGAUCACCCUUUCGAAAGAAAGAGCCACCGUGAAAACGGUGGCAAAUUCUAGGAUAUCACGACGUGA [#SharedSequence - IExNG2: 2] (puzzle (switch architecture): Inverted Exclusion NG 2)
apparent KD of MS2 coat protein ([1]; input ligand: FMN 200 uM): 363 nM | apparent KD of MS2 coat protein ([1]; input ligand: none): 230 nM

AGACCUGCUCAGAAGGAGAGUGCGAGGCUGGAAACAGCCUCGAACUAGAAACCUAGAGGAUCACCCUAGGAUAUGAGCAGGUCA [#SharedSequence - IExNG2: 10] (puzzle (switch architecture): Inverted Exclusion NG 2)
apparent KD of MS2 coat protein ([1]; input ligand: FMN 200 uM): 5.58 nM | apparent KD of MS2 coat protein ([1]; input ligand: none): 5.51 nM

AGGAGAAAUGUAGGAUAUGGGCGGGCGGACGGGCAAAGCGCGUCCGCCCGCCCAGAAGGACAUGAGGAUCACCCAUGUUUCCCU [Wow, my 5th design!] (puzzle (switch architecture): Small Loop Exclusion NG 1)
apparent KD of MS2 coat protein ([1]; input ligand: FMN 200 uM): 13 nM | apparent KD of MS2 coat protein ([1]; input ligand: none): 12.2 nM

CCCGGUGACUAGAAGGCGCCACAUGAGGAUCACCCAUGUAUCAAAGACCGGUGAUUGCCGACGGGCGAGGAUAUAGGUGCGACG [EternaBot1154] (puzzle (switch architecture): Inverted Exclusion NG 2)
apparent KD of MS2 coat protein ([1]; input ligand: none): 8.19 nM

CGGGAUAUGAAGGGCGAAAGCCCACAUGAGGAUCACCCAUGUAGAAGGCGGGCCGCAACGCGGCCCGAGGAUAUACAAUAUCCA [#my 7th design] (puzzle (switch architecture): Inverted Exclusion NG 3)
apparent KD of MS2 coat protein ([1]; input ligand: FMN 200 uM): 13.1 nM | apparent KD of MS2 coat protein ([1]; input ligand: none): 9.05 nM

CGUAGUCCGUAGAAGGGUGACAUGAGGAUCACCCAUGUGCGAGCGGAGGGAGUCAGCGGCUCGCCACAGGAUAUACGGAGCACG [Eniszabe] (puzzle (switch architecture): Inverted Same State NG 2)
apparent KD of MS2 coat protein ([1]; input ligand: FMN 200 uM): 28.8 nM | apparent KD of MS2 coat protein ([1]; input ligand: none): 137 nM

GAAAAACAUGAGGAUCACCCAUGUAGAAAUAUGGGAGGAUAUACAAAGACGGAAGUCAAAGUAGAAGGCCUAAAAG [Mat - Same State 1 - Eli mod - D7]
apparent KD of MS2 coat protein [2]: 27.9 nM | apparent KD of MS2 coat protein [3]: 71.2 nM

GAAAAACAUGAGGAUCACCCAUGUAGAAAUAUGGGAGGAUAUACAAAGACGUAAGUCAAAGUAGAAGGCCUAAAAG [Mat - Same State 1 - Eli mod - D8]
apparent KD of MS2 coat protein [2]: 19.1 nM | apparent KD of MS2 coat protein [3]: 76.9 nM

GAAAAACAUGAGGAUCACCCAUGUAGAAAUAUGGGAGGAUAUACAAUGACGAAAGUCAAUGUAGAAGGCCUGAUAG [JL S1 M-MoE mod 4]
apparent KD of MS2 coat protein [2]: 25.7 nM | apparent KD of MS2 coat protein [3]: 74.2 nM

GAAAAACAUGAGGAUCACCCAUGUAGAAAUAUGGGAGGAUAUACGAACUCGAAAGUCAAAGUAGAAGGCCUAAAAG [Garnet 30]
apparent KD of MS2 coat protein [2]: 47 nM | apparent KD of MS2 coat protein [3]: 130 nM

GAAAAACAUGAGGAUCACCCAUGUGAAAAUAUGGGAGGAUAUACGAAGUCGAAAGUCAGAGUAGAAGGCCUAAAAG [Garnet 33]
apparent KD of MS2 coat protein [2]: 26.7 nM | apparent KD of MS2 coat protein [3]: 73.3 nM

GAAAAACAUGAGGAUCACCCAUGUGAAAAUAUGGGAGGAUAUACUAAGACGAAAGUCGAGGUAGAAGGCCUAAAAG [Same State 1.4h (Mat - Mod of Eli - )]
apparent KD of MS2 coat protein [2]: 24.7 nM | apparent KD of MS2 coat protein [3]: 131 nM

GAAAAACAUGAGGAUCACCCAUGUGUAAACACGGGAGGAUAUACAAAGACGUAAGUCAAAGUAGAAGGCCUAAAAG [Garnet 39]
apparent KD of MS2 coat protein [2]: 26.7 nM | apparent KD of MS2 coat protein [3]: 96.5 nM

GAAAAACAUGAGGAUCACCCAUGUGUAAAUAUGGAAGGAUAUACAAAGACGGAAGUCAAAGUAGAAGGUCUAAAAG [Mat - Same State 1 - Eli mod - D18]
apparent KD of MS2 coat protein [2]: 24.5 nM | apparent KD of MS2 coat protein [3]: 30.3 nM

GAAAAACAUGAGGAUCACCCAUGUUAAUAUAUGGGAGGAUAUACAAAGACGAAAGUCAAAGUAGAAGGCCUAAAAG
apparent KD of MS2 coat protein [2]: 19.7 nM | apparent KD of MS2 coat protein [3]: 43.3 nM

GACGGACAUGAGGAUCACCCAUGUCGGAAAAGGCAAGGAUAUGGGCGGUACCAAUUUCGGUCAGAAGGUGCAAAAG [Beenedriar]
apparent KD of MS2 coat protein [2]: 117 nM | apparent KD of MS2 coat protein [3]: 61 nM
